Two substances from PMC9894195 can be followed below.

The target of experiment [1] is full-length human Lck-mEGFP (HEK293T) (UniProt P06239). Put plainly: sFCCS (line-scan fluorescence cross-correlation spectroscopy) in live cells. The following applies: HEK293T cells coexpressing mCherry2-tagged CD4 construct with wild-type Lck-mEGFP; read off a plot.
Experiment [2] has as its target full-length human CD4 with both the basic-rich region and the amphipathic α-helix replaced by (Gly-Ser)n linkers, mCherry2-tagged (human) (UniProt P01730). Put plainly: scanning fluorescence cross-correlation spectroscopy (sFCCS); live HEK293T cells on glass coverslips coexpressing mCherry2- and mEGFP-tagged proteins, one coreceptor; line scans at the basal cell surface; cross-correlation quotient q normalised to the tandem control (100%) and Lck^CS/Lck^CS (0%).

Experiment [3] deals with full-length human CD4 with the amphipathic α-helix replaced by a (Gly-Ser)n linker, mCherry2-tagged (human) (UniProt P01730). The description is as above.
Experiment [4] deals with full-length human CD4 with the unstructured C-terminal tail replaced by a (Gly-Ser)n linker, mCherry2-tagged (human) (UniProt P01730). The experiment is described as above.

Consider “full-length human CD4-mCherry2 (HEK293T) (from UniProt P01730) CQC>SQS (both Zn2+ clasp Cys to Ser; no residue numbers printed)”, for which the other: normalized cross-correlation quotient q (occupancy) in experiment [1] was found to be 1%.

On to “full-length human Lck-mEGFP (HEK293T) (from UniProt P06239 1-509) (enzyme)”, for which the decrease in CD4/Lck occupancy is 28% in experiment [2], 27% in experiment [3] and 14% in experiment [4].
